Experimental data reported in the Human Domainome abundance scans (Beltran et al. 2025).
± gives the uncertainty stated by the source.

Assay: abundance fitness (aPCA) (normalised: wild type 0, dead -1); higher = more abundant; growth selection in yeast, the domain comes from the species named
Conditions: Homo sapiens

Substance | abundance fitness
DnaJ homolog subfamily B member 1 E42N, P25685 | 0.027 ± 0.13
DnaJ homolog subfamily B member 1 E42P, P25685 | 0.028 ± 0.087
DnaJ homolog subfamily B member 1 E42Q, P25685 | -0.157 ± 0.12
DnaJ homolog subfamily B member 1 E42R, P25685 | 0.024 ± 0.058
DnaJ homolog subfamily B member 1 E42S, P25685 | -0.016 ± 0.065
DnaJ homolog subfamily B member 1 E42T, P25685 | -0.052 ± 0.093
DnaJ homolog subfamily B member 1 E42W, P25685 | -0.122 ± 0.11
DnaJ homolog subfamily B member 1 E42Y, P25685 | -0.188 ± 0.1
DnaJ homolog subfamily B member 1 E43A, P25685 | 0.025 ± 0.13
DnaJ homolog subfamily B member 1 E43C, P25685 | -0.07 ± 0.2
DnaJ homolog subfamily B member 1 E43D, P25685 | -0.153 ± 0.14
DnaJ homolog subfamily B member 1 E43F, P25685 | -0.093 ± 0.19
DnaJ homolog subfamily B member 1 E43G, P25685 | 0.009 ± 0.074
DnaJ homolog subfamily B member 1 E43I, P25685 | 0.109 ± 0.12
DnaJ homolog subfamily B member 1 E43K, P25685 | 0.156 ± 0.1
DnaJ homolog subfamily B member 1 E43L, P25685 | 0.105 ± 0.066
DnaJ homolog subfamily B member 1 E43N, P25685 | -0.003 ± 0.21
DnaJ homolog subfamily B member 1 E43P, P25685 | -0.177 ± 0.13
DnaJ homolog subfamily B member 1 E43Q, P25685 | 0.086 ± 0.1
DnaJ homolog subfamily B member 1 E43R, P25685 | 0.11 ± 0.051
DnaJ homolog subfamily B member 1 E43S, P25685 | -0.014 ± 0.092
DnaJ homolog subfamily B member 1 E43T, P25685 | -0.109 ± 0.12
DnaJ homolog subfamily B member 1 E43V, P25685 | 0.112 ± 0.062
DnaJ homolog subfamily B member 1 E43W, P25685 | -0.043 ± 0.069
DnaJ homolog subfamily B member 1 E43Y, P25685 | 0.196 ± 0.32

Substance | abundance fitness
DnaJ homolog subfamily B member 1 E47A, P25685 | 0.021 ± 0.088
DnaJ homolog subfamily B member 1 E47C, P25685 | -0.218 ± 0.095
DnaJ homolog subfamily B member 1 E47D, P25685 | -0.073 ± 0.13
DnaJ homolog subfamily B member 1 E47F, P25685 | -0.277 ± 0.098
DnaJ homolog subfamily B member 1 E47G, P25685 | -0.054 ± 0.076
DnaJ homolog subfamily B member 1 E47H, P25685 | -0.009 ± 0.11
DnaJ homolog subfamily B member 1 E47K, P25685 | -0.43 ± 0.12
DnaJ homolog subfamily B member 1 E47M, P25685 | -0.186 ± 0.096
DnaJ homolog subfamily B member 1 E47N, P25685 | 0.333 ± 0.21
DnaJ homolog subfamily B member 1 E47P, P25685 | -0.212 ± 0.088
DnaJ homolog subfamily B member 1 E47Q, P25685 | -0.153 ± 0.1
DnaJ homolog subfamily B member 1 E47R, P25685 | -0.071 ± 0.068
DnaJ homolog subfamily B member 1 E47S, P25685 | -0.099 ± 0.072
DnaJ homolog subfamily B member 1 E47T, P25685 | -0.118 ± 0.068
DnaJ homolog subfamily B member 1 E47V, P25685 | -0.295 ± 0.088
DnaJ homolog subfamily B member 1 E50A, P25685 | -0.241 ± 0.11
DnaJ homolog subfamily B member 1 E50C, P25685 | -0.311 ± 0.095
DnaJ homolog subfamily B member 1 E50D, P25685 | -0.074 ± 0.087
DnaJ homolog subfamily B member 1 E50F, P25685 | -0.612 ± 0.19
DnaJ homolog subfamily B member 1 E50G, P25685 | -0.326 ± 0.13
DnaJ homolog subfamily B member 1 E50H, P25685 | -0.222 ± 0.17
DnaJ homolog subfamily B member 1 E50I, P25685 | -0.011 ± 0.1
DnaJ homolog subfamily B member 1 E50L, P25685 | -0.026 ± 0.052
DnaJ homolog subfamily B member 1 E50M, P25685 | -0.181 ± 0.12
DnaJ homolog subfamily B member 1 E50N, P25685 | -0.328 ± 0.1

Substance | abundance fitness
DnaJ homolog subfamily B member 1 E50P, P25685 | -0.885 ± 0.18
DnaJ homolog subfamily B member 1 E50Q, P25685 | -0.177 ± 0.082
DnaJ homolog subfamily B member 1 E50R, P25685 | -0.036 ± 0.062
DnaJ homolog subfamily B member 1 E50S, P25685 | -0.211 ± 0.066
DnaJ homolog subfamily B member 1 E50V, P25685 | -0.085 ± 0.078
DnaJ homolog subfamily B member 1 E50W, P25685 | -0.34 ± 0.11
DnaJ homolog subfamily B member 1 E50Y, P25685 | -0.096 ± 0.12
DnaJ homolog subfamily B member 1 E62C, P25685 | -0.361 ± 0.14
DnaJ homolog subfamily B member 1 E62D, P25685 | -0.31 ± 0.13
DnaJ homolog subfamily B member 1 E62F, P25685 | -0.519 ± 0.12
DnaJ homolog subfamily B member 1 E62G, P25685 | -0.272 ± 0.15
DnaJ homolog subfamily B member 1 E62H, P25685 | -0.351 ± 0.081
DnaJ homolog subfamily B member 1 E62I, P25685 | -0.378 ± 0.14
DnaJ homolog subfamily B member 1 E62M, P25685 | -0.32 ± 0.11
DnaJ homolog subfamily B member 1 E62N, P25685 | -0.567 ± 0.28
DnaJ homolog subfamily B member 1 E62P, P25685 | -0.134 ± 0.079
DnaJ homolog subfamily B member 1 E62Q, P25685 | -0.353 ± 0.12
DnaJ homolog subfamily B member 1 E62R, P25685 | -0.344 ± 0.095
DnaJ homolog subfamily B member 1 E62S, P25685 | -0.212 ± 0.077
DnaJ homolog subfamily B member 1 E62V, P25685 | -0.218 ± 0.12
DnaJ homolog subfamily B member 1 E62W, P25685 | -0.626 ± 0.096
DnaJ homolog subfamily B member 1 E62Y, P25685 | -0.552 ± 0.22
DnaJ homolog subfamily B member 1 F45A, P25685 | -0.21 ± 0.076
DnaJ homolog subfamily B member 1 F45C, P25685 | -0.351 ± 0.12
